B1: library; numbered along this chain (parent)
chain: MATDAALRRLLRLHRTEIAVAVDSAFPLLHALADHDVVPEDKFQETLHLKEKEGCPQAFHALLSWLLTQDSTAILDFWRVLFKDYNLERYGRLQPILDSFPKDVDLSQPRKGRKPPAVPKALVPPPRLPTKRKASEEARAAAPAALTPRGTASPGSQLKAKPPKKPESSAEQQRLPLGNGIQTMSASVQRAVAMSSGDVPGARGAVEGILIQQVFESGGSKKCIQVGGEFYTPSKFEDSGSGKNKARSSSGPKPLVRAKGAQGAAPGGGEARLGQQGSVPAPLALPSDPQLHQKNEDECAVCRDGGELICCDGCPRAFHLACLSPPLREIPSGTWRCSSCLQATVQEVQPRAEEPRPQEPPVETPLPPGLRSAGEEVRGPPGEPLAGMDTTLVYKHLPAPPSAAPLPGLDSSALHPLLCVGPEGQQNLAPGARCGVCGDGTDVLRCTHCAAAFHWRCHFPAGTSRPGTGLRCRSCSGDVTPAPVEGVLAPSPARLAPGPAKDDTASHEPALHRDDLESLLSEHTFDGILQWAIQSMARPAAPFPS

Variants of: B1
Assay: AIRE transcriptional activation functional score (insulin promoter-GFP; nonsense median 0, synonymous median 1) (normalised score); higher = higher AIRE activity (more reporter activation)
Conditions: with insulin promoter-GFP reporter in HEK293
In short: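 Flp-In T-REx HEK293 landing-pad cells carrying an insulin core promoter-GFP reporter received codon-optimized AIRE NNN-codon libraries (three regions) through Bxb1 recombinase. Sorting of mCherry+, BFP− integrants took place at day 7, followed by 7 days of expansion and tile-sequencing of top 10% GFP and unselected integrant populations. A functional score was derived from select versus non-select variant enrichment with wild type subtracted. Values from variants reaching 10 counts per million in non-select were set to nonsense median 0 and synonymous median 1 and averaged over biological replicates.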

AIRE transcriptional activation functional score of substitutions, site by site:
P490: M 0.144; F 0.986; N 0.697; W -0.0714; D 0.28; H 0.603; V 0.606; C 1.26; Q 0.417; E 0.916; R 1.07; G 1.51; L 1.12; T 1.13
D502: Y 1.33; T 0.991; E 0.952; R 0.415; I 1.02; W 1.04; M 0.261; G 1.04; A 0.926; H 1.15; N 0.775; F 1.35; L 0.916; S 0.804; P 0.765; Q 0.924; V 0.937; C 0.85; K 0.812
E508: I 0.786; A 0.896; L 0.506; K 0.0783; G 0.721; M 0.536; C 0.854; F 0.724; N 0.552
R494: M 0.56; T 0.134; P 0.439; G 0.344; W 1.41; C 0.847; H 1.7; Y 0.846; Q 0.696; S 0.361; A 0.321; F 0.918; K 0.735; E 0.493; I 0.785; L 0.489; V 1.27
H507: P 1.02; L 1.01; K 0.802; G 0.805; M 1.47; D 0.604; N 1.19; F 1.56; R 0.823; I 1.27; V 1.12; Y 1.18; S 0.954; C 0.78; Q 0.898; E 0.521; T 0.361; A 0.96
P499: E 0.508; Y 1.13; D 0.797; S 1.1; H 1.16; W 1.37; Q 1.15; G 1.31; I 1.18; V 1.21; K 0.747; F 1.11; A 1.22; L 1.11; N 0.266; C 0.764; R 0.761; T 1.32
K501: S 1.3; E 0.49; L 0.792; F 1.17; W 0.734; R 1.11; C 0.625; Q 1.08; G 0.947; I 0.714; P 0.836; M 0.223; A 0.451; V 0.712; N 1.03; T 1.04; Y 0.863; H 0.51; D 0.395
A496: Y 1.07; L 1.15; R 0.864; K 0.412; Q 1.04; P 0.91; W 1.64; N 0.726; C 1.01; S 1.02; I 1.04; T 0.81; D 0.267; V 0.988; H 1.29; G 0.999; E 0.99; F 1.07; M 1.5
T504: E 0.961; F 0.918; C 1.15; R 0.922; V 0.558; G 0.95; Y 1.77; A 1.58; I 1.6; D 1.79; L 0.843; Q 1.7; N 0.713; M 0.913; S 1.44; K 0.99; W 1.23
G498: W 1.45; R 0.839; V 1.36; S 0.556; E 1.1; Y 1.2; Q 0.969; M 1.24; A 1.09; L 1.11; D 0.318; T 1.09; H 1.42; N 0.869; C 1.23; K 0.572; I 0.895
